Experimental data as given in article doi:10.1101/520460.
Read-outs that look alike come from different tables or passages of the source.

Legend:
[1] = target: paclitaxel stabilized microtubules (polymerized bovine brain tubulin) (bovine) (UniProt Q6B856); assay: co-sedimentation
[2] = target: subtilisin-treated microtubules (C-terminal tails of α- and β-tubulin removed) (bovine) (UniProt Q6B856)
[3] = target: paclitaxel stabilized microtubules (polymerized bovine brain tubulin) (bovine) (UniProt Q6B856); assay: co-sedimentation; remark: listed apart in the source
[4] = target: paclitaxel stabilized microtubules (polymerized bovine brain tubulin) (bovine) (UniProt Q6B856); assay: co-sedimentation; remark: listed apart in the source

Chain of paclitaxel stabilized microtubules (polymerized bovine brain tubulin) (bovine) (Q6B856 whole entry, looked up): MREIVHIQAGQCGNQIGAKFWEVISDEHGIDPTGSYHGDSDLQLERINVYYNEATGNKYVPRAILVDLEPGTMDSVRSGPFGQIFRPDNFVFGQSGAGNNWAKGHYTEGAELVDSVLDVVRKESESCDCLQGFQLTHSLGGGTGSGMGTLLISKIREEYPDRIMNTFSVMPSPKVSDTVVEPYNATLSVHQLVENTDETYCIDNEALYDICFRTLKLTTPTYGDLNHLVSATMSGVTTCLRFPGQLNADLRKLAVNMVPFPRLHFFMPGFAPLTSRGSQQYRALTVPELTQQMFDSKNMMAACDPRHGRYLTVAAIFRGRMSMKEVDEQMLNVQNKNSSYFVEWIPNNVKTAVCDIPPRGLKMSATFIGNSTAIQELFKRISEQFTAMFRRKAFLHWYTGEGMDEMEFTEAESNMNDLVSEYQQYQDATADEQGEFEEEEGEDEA
Chain of subtilisin-treated microtubules (C-terminal tails of α- and β-tubulin removed) (bovine) (Q6B856 whole entry, looked up): as above

“catalytic domain plus the putative neck linker of human kinesin-like DNA-binding protein (KID), Gly5-Leu379 (domain or fragment)” gave a Kd [1] of 110 nM, a K0.5,S-MT of the steady-state ATPase on subtilisin treated microtubules [2] of 1.1 µM and a Kd [3] of 160 nM. It also gave a Kd [4] of 500 nM.
